B1: Acidic FosW: library-derived peptide able to dissociate the cJun bZIP protein from the TRE sites in TRE mDHFR (peptide)
peptide: MASLEQRAEELARENEELEKEAEELEQELDELQAEIEQLEERNYALRKEIEDLQKQLEKLGAP

Assays:
cJun bZIP = molecular target: T1, cJun bZIP (Homo sapiens, UniProt P05412, S292Y); experiment: Further TBS assay experiment, Example 3 (colony count, FIG. 3); assay type: cell-based; conditions: for rescue of DHFR expression / change in number of colonies compared to plate 2: co-expressed with TRE mDHFR and cJun bZIP
T1 construct: cJun with the basic region and leucine zipper (cJun bZip); expressed in transfected cells
T1 sequence (P05412 252-315 S292Y limits assumed): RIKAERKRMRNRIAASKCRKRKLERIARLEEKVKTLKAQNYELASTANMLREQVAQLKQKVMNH
Description: This experiment used similar plasmids to those set out in Example 1, with the exception that pET24a was used to express both the lac repressor and test compound using a single plasmid. Specifically, three plasmids were used: i) p300d expressing the mDHFR gene modified to include 15 TREs (TRE mDHFR, generated as described in Example 1); ii) p230d expressing either the leucine zipper part of cJun (cJun LZ) or cJun with the basic region and leucine zipper (cJun bZip); iii) pET24a expressing the lac repressor and either the leucine zipper part of cFos (cFos LZ) or the acidic FosW peptide (acidic FosW).
Plates were generated as set out in the following table:
The number of colonies produced in each plate were counted and this quantification is illustrated in FIG. 3.

AP-1 = AP-1 driven luciferase gene reporter assay; assay type: cell-based, mammalian; conditions: transfected, versus control and dummy vector; FIG. 2
Description: Wild-type AP-1 proteins have a long stretch of basic amino acids at the N-terminal of the protein which enables DNA binding. Acidic versions of AP-1 proteins can be generated with a long stretch of negatively charged amino acids (in place of the positive) which can serve as a DNA mimic. Acidic AP-1 peptide variants can therefore form heterodimers with wild type AP-1 proteins driven by both the dimerization motif and the negative/positive charge interaction, resulting in their sequestration from the DNA.
In order to test whether the peptides identified as being functional antagonists in the TBS assay are also likely to have the same activity in eukaryotic cells, a AP-1 driven luciferase gene reporter assay was carried out. This assay was carried out using no transfection (control), transfected dummy vector, acidic c-Jun, acidic c-Fos and library-derived peptide treated (FosW).

[1] = co-expressed with TRE mDHFR and cJun bZIP (plates 2 and 3)

Molecule	rescue of DHFR expression / change in number of colonies compared to plate 2 (cJun bZIP)	number of bacterial colonies (cJun bZIP; [1]) [colonies]	number of bacterial colonies (cJun bZIP; control plate 1: co-expressed with TRE mDHFR and cJun LZ (no basic DNA-binding region)) [colonies]	AP-1 driven luciferase activity (AP-1)
cFos LZ: the leucine zipper part of cFos; binds the coiled-coil region of cJun (MASTDTLQAETDQLEDEKYALQTEIANLLKEKEKLGAP)	not able to rescue expression of the DHFR protein	< 20	> 300	–
B1	substantial increase in the number of colonies	> 200	–	dramatic reduction in the signal

Source: patent publication US20210396736A1, “SCREENING ASSAY” (The University of Bath, priority 2018, published 2021)
